This is an account of results in patent publication US20220395553A1 (COHBAR, published 2022).

Square brackets hold non-standard residues; d marks the D form. Ends that are not written are not given here.

To fix the notation:
B1: SEQ ID NO: 5 (peptide)
peptide: LERYHHS[dA]RSSLRPYT
B2: SEQ ID NO: 4 (peptide)
peptide: LERYHHSVRSSLRPYTK
B3: SEQ ID NO: 3 (peptide)
peptide: LRRYHHSVRSSLRPYTK
B4: SEQ ID NO: 2 (peptide)
peptide: MLRRYHHSVRSSLRPYTK
B5: SEQ ID NO: 79 (peptide)
peptide: LRRYHHSVRSSLRGYTK
B6: SEQ ID NO: 16 (peptide)
peptide: LRRYHHSVRSSLRPYTK-NH2
B7: SEQ ID NO: 56 (peptide)
peptide: LERYHHSVRSSLRPYTK-NH2

T3 sequence (P61073 whole entry): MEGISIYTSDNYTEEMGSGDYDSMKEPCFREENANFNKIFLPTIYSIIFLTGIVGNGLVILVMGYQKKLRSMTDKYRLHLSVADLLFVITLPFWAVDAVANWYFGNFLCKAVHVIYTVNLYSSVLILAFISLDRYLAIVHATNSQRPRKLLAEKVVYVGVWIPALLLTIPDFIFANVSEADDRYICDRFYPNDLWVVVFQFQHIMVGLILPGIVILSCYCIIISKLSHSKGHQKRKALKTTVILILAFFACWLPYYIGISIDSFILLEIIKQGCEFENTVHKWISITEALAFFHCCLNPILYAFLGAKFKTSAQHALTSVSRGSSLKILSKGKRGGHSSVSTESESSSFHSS

For one test, the target named is T1, ProLink tagged human CXCR4 (C2C12 CXCR4 β-Arrestin cell line) (human, UniProt P61073 1-352). In words: cell-based or functional assay.
T1 sequence (P61073 whole entry): as above
As for B1, the “IC50 for Inhibition of CXCR4 (β-Arrestin recruitment)” value was determined as 121 nM.

Another test deals with T2, ProLink tagged human CXCR4 (C2C12 CXCR4 β-Arrestin cell line) (human, UniProt P61073 1-352). As to the kind of experiment: cell-based or functional assay.
T2 sequence (P61073 whole entry): as above
With B2, the “IC50 for Inhibition of CXCR4 (β-Arrestin recruitment)” value stood at 2.28 nM.

For the molecule B3, the “IC50 for Inhibition of CXCR4 (β-Arrestin recruitment)” value stood at 0.51 nM.

The next test concerns the target T3, CXCR4 on cultured U937 and Jurkat cells (human, UniProt P61073 1-352). In words: cell-based or functional assay.
Consider B2, for which the “Percent Inhibition of CXCL12 Mediated Migration (U937 cells)” value (“Percent Inhibition … (U937 cells)” below) is 98%.

On to B1, for which the “Percent Inhibition … (U937 cells)” value was 86%.

For the molecule B3, the “Percent Inhibition … (U937 cells)” value came to 101%.

B4: the “Percent Inhibition … (U937 cells)” value was determined as 58%.

For another test, the target named is T1, ProLink tagged human CXCR4 (C2C12 CXCR4 …). As to the kind of experiment: cell-based or functional assay. This is another data set of the same source.
For the molecule B5, the “IC50 for Inhibition of CXCR4 Activation (β-Arrestin recruitment)” value (shortened to “IC50 for Inhibition of CXCR4 Activation”) came to 3 nM.

With B1, the “IC50 for Inhibition of CXCR4 Activation” value was found to be 244 nM.

Consider B4, for which the “IC50 for Inhibition of CXCR4 Activation” value stood at 11 nM.

A further test concerns the target T2, ProLink tagged human CXCR4 (C2C12 CXCR4 …). In words: cell-based or functional assay. The source holds these as a separate data set.
With B2, the “IC50 for Inhibition of CXCR4 Activation” value amounted to 4 nM.

For the molecule B3, the “IC50 for Inhibition of CXCR4 Activation” value was found to be 5 nM.

For B6, the “IC50 for Inhibition of CXCR4 Activation” value came out at 8 nM.

Take B7: the “IC50 for Inhibition of CXCR4 Activation” value is 11 nM.

The target in another test is T3, CXCR4 on cultured U937 and Jurkat cells. As to the kind of experiment: cell-based or functional assay. The source holds these as a separate data set.
Take B2: the “Percent Inhibition of CXCL12 Mediated Migration (1.1 µM Test Article; Jurkat cells)” value worked out at 77%.

For B5, the “Percent Inhibition of CXCL12 Mediated Migration (1.1 µM Test Article; Jurkat cells)” value was found to be 36%.

With B1, the “Percent Inhibition of CXCL12 Mediated Migration (1.1 µM Test Article; Jurkat cells)” value is 46%.

Take B3: the “Percent Inhibition of CXCL12 Mediated Migration (1.1 µM Test Article; Jurkat cells)” value is 66%.

As to B6, the “Percent Inhibition of CXCL12 Mediated Migration (1.1 µM Test Article; Jurkat cells)” value amounted to 21%.

B7: the “Percent Inhibition of CXCL12 Mediated Migration (1.1 µM Test Article; Jurkat cells)” value came to 83%.

As to B4, the “Percent Inhibition of CXCL12 Mediated Migration (1.1 µM Test Article; Jurkat cells)” value turned out to be 4%.

The next test shares this target. As to the kind of experiment: cell-based or functional assay. The source holds these as a separate data set.
For the molecule B2, the “Percent Inhibition of CXCR4/CXCL12 Induced p-MEK (100 nM Test Article)” value was 40% and the “Percent Inhibition of CXCR4/CXCL12 Induced p-MEK (1 µM Test Article)” value was found to be 76%.

On to B5, for which the “Percent Inhibition of CXCR4/CXCL12 Induced p-MEK (100 nM Test Article)” value was 46% and the “Percent Inhibition of CXCR4/CXCL12 Induced p-MEK (1 µM Test Article)” value was determined as 100%.

Take B1: the “Percent Inhibition of CXCR4/CXCL12 Induced p-MEK (100 nM Test Article)” value was -20% and the “Percent Inhibition of CXCR4/CXCL12 Induced p-MEK (1 µM Test Article)” value is 24%.

B3: the “Percent Inhibition of CXCR4/CXCL12 Induced p-MEK (100 nM Test Article)” value was 29% and the “Percent Inhibition of CXCR4/CXCL12 Induced p-MEK (1 µM Test Article)” value came out at 91%.

For B6, the “Percent Inhibition of CXCR4/CXCL12 Induced p-MEK (100 nM Test Article)” value was 74% and the “Percent Inhibition of CXCR4/CXCL12 Induced p-MEK (1 µM Test Article)” value was found to be 100%.

Regarding B7, the “Percent Inhibition of CXCR4/CXCL12 Induced p-MEK (100 nM Test Article)” value came out at 69% and the “Percent Inhibition of CXCR4/CXCL12 Induced p-MEK (1 µM Test Article)” value was 98%.

Turning to B4, the “Percent Inhibition of CXCR4/CXCL12 Induced p-MEK (100 nM Test Article)” value is -1% and the “Percent Inhibition of CXCR4/CXCL12 Induced p-MEK (1 µM Test Article)” value is 28%.

In the next test the target is T4, SNAP tagged-CXC4 receptor labeled with terbium (Tag-lite CXCR4 cells, HEK293) (UniProt P61073 1-352, SNAP tag labeled with terbium fluorescent dye).
T4 construct: whole, on cells; Bought frozen cells (PerkinElmer-CisBio), HEK293 transiently expressing the receptor; also called terbium labeled CXCR receptor
T4 sequence (P61073 whole entry): as above
As to the kind of experiment: HTRF competition on Tag-lite CXCR4 HEK293 cells; competitor labelled CXCL12. (In TR-FRET formats the signal depends on donor and acceptor labels being close together.)
For B2, the “Percent Inhibition of CXCR4/CXCL12 Binding (400 nM peptide)” value is 88%.

B5: the “Percent Inhibition of CXCR4/CXCL12 Binding (400 nM peptide)” value is 12%.

A further test deals with T4, SNAP tagged-CXC4 receptor labeled with …. Described as above. The source holds these as a separate data set. Here is the method:
Peptides were initially prepared as 1 mM stock in H₂O. […] Following the manufacture's protocol, a frozen aliquot of Tag-lite CXCR4 cells was thawed and immediately seeded onto 384-well plates in TLB. […] The plates were covered in aluminum foil and left at room temperature for 3 hours. Following the 3 hour incubation period, the plates were removed from the incubator and fluorescence measured using a Cytation 1 plate reader using a HTRF filter cube ([…]; BioTek; Winooski, Vt.).
What is called IC50 is the concentration at which inhibition is half-maximal. The low end stands for greater potency in that assay, the high end for weaker potency in that assay. B2: the IC50 turned out to be 6 nM.

B5 had an IC50 of 670 nM.

Molecule B1 showed an IC50 of 33 nM.

Consider B3, for which the IC50 is 497 nM.

Molecule B4 had an IC50 of 375 nM.
